Laboratory results from paper PMC2646509 (Microbiology (Reading, England), 2008).
Positions count from the first letter of the chain named. Names and notes keep the numbering of the source.

B1: PrfA L140F (natural protein)
chain: MNAQAEEFKKYLETNGIKPKQFHKKELIFNQWDPQEYCIFLYDGITKLTSISENGTIMNLQYYKGAFVIMSGFIDTETSVGYYNLEVISEQATAYVIKINELKELLSKNLTHFFYVFQTLQKQVSYSLAKFNDFSINGKFGSICGQLLILTYVYGKETPDGIKITLDNLTMQELGYSSGIAHSSAVSRIISKLKQEKVIVYKNSCFYVQNLDYLKRYAPKLDEWFYLACPATWGKLN
B2: PrfA Y63C (natural protein)
chain: B1 chain with Y63C, F140L
B3: wild-type PrfA (positive regulatory factor A) (natural protein)
chain: B1 chain with F140L

Target: the molecule itself
Test: cross-linking

Protein | binding result | stoichiometry N
B1 | binds | 
B2 | binds | 
B3 |  | 2
